# Values of other authors as cited in article PMC4440832.
# How the values were obtained:
# BMP6 (Homo sapiens) = BMP6 (Homo sapiens) (UniProt P22004); test: SPR
# BMP7 (Homo sapiens) = BMP7 (Homo sapiens) (UniProt P18075); test: SPR
# BMP5 (Homo sapiens) = BMP5 (Homo sapiens) (UniProt P22003); test: SPR
# BMP2 (Homo sapiens) [1] = molecular target: BMP2 (Homo sapiens) (UniProt P12643); test: SPR
# BMP4 (Homo sapiens) [2] = molecular target: BMP4 (Homo sapiens) (UniProt P12644); test: radioligand binding
# BMP2 (Homo sapiens) [3] = molecular target: BMP2 (Homo sapiens) (UniProt P12643); test: radioligand binding
# BMP4 (Homo sapiens) [4] = molecular target: BMP4 (Homo sapiens) (UniProt P12644); test: SPR
# netrin = netrin (UniProt O95631)
# Chain of RGMa.Fc ECD (Q6PCX7 48-427): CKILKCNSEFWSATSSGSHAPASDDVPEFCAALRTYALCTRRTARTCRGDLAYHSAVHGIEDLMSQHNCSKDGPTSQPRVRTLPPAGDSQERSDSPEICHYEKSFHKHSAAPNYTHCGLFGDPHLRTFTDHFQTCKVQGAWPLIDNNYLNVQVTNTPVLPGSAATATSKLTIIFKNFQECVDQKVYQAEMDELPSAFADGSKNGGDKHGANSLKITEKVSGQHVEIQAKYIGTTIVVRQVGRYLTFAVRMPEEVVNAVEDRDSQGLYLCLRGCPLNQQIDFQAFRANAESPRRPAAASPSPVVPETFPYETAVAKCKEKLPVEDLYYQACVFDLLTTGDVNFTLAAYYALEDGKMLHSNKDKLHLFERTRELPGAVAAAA
# Chain of HJV (Q6ZVN8 36-400): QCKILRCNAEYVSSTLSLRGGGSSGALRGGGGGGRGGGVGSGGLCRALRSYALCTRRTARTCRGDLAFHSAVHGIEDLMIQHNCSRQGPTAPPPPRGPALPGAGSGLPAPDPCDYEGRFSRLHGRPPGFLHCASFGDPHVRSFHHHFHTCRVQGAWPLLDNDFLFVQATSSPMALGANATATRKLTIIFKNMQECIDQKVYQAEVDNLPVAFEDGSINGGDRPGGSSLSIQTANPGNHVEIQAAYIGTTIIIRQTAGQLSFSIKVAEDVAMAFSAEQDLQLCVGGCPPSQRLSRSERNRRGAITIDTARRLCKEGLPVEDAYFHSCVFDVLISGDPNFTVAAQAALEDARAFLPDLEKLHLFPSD
# Chain of BMP6 (Homo sapiens) (P22004 375-513): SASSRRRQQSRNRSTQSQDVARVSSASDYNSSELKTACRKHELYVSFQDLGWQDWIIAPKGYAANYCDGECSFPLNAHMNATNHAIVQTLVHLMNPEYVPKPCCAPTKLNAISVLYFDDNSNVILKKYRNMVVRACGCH
# Chain of RGMb (Q6NW40 46-413): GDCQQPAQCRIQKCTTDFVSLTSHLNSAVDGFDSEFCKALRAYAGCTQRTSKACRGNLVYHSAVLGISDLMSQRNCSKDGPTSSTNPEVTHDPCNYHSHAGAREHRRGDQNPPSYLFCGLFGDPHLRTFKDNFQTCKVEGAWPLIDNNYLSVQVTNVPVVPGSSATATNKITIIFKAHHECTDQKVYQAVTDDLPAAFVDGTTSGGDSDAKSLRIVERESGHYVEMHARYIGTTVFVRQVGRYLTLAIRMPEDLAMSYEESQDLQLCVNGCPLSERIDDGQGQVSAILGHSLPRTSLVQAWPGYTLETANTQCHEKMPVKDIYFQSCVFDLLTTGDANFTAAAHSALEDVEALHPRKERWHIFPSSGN
# Chain of BMP2 (Homo sapiens) (P12643 283-396): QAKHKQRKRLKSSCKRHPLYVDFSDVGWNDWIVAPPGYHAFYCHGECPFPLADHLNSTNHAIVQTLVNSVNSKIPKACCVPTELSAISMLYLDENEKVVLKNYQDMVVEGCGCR
# Chain of RGMa (Q96B86 48-424): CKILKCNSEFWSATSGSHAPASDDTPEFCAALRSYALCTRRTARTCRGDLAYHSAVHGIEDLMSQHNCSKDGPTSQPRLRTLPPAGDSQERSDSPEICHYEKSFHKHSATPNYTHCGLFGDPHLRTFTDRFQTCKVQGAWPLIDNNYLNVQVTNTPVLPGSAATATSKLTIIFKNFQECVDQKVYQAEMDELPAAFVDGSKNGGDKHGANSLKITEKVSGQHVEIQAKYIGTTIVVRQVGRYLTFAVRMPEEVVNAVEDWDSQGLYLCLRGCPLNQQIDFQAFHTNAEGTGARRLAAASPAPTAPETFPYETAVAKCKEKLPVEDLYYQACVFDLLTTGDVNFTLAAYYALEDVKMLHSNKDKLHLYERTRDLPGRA
# Chain of BMP4 (Homo sapiens) (P12644 293-408): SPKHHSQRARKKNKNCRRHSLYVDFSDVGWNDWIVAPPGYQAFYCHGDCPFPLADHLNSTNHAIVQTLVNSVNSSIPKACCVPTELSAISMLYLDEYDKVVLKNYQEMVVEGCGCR
# Chain of neogenin (Q92859 34-1105): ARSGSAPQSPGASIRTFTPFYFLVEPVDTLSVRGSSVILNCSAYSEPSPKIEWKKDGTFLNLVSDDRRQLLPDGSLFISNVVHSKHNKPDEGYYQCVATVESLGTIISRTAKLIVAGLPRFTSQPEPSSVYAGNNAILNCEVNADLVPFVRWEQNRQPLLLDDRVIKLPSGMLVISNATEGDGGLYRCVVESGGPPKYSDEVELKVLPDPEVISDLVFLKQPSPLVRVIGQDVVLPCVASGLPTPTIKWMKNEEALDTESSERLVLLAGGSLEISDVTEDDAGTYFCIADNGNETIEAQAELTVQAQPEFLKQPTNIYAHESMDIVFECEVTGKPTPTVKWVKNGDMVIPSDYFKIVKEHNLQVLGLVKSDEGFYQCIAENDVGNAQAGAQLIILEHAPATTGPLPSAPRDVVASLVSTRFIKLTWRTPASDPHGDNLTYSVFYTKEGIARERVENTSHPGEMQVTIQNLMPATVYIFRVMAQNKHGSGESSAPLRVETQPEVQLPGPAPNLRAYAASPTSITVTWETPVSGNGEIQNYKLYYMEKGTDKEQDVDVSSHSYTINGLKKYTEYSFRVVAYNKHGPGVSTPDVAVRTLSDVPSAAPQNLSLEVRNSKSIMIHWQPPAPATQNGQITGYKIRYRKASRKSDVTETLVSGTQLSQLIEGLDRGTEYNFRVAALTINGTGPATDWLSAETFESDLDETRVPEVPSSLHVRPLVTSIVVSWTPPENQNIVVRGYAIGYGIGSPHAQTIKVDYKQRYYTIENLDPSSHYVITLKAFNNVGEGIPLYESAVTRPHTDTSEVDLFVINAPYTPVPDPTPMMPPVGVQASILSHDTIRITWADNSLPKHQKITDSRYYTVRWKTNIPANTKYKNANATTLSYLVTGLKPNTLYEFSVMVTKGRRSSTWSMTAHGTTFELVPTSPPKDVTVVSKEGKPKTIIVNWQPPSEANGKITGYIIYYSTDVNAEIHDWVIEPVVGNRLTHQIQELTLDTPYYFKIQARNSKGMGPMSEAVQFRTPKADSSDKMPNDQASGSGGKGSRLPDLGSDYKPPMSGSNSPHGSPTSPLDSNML
# Chain of RGMb.Fc ECD (Q7TQ33 49-415): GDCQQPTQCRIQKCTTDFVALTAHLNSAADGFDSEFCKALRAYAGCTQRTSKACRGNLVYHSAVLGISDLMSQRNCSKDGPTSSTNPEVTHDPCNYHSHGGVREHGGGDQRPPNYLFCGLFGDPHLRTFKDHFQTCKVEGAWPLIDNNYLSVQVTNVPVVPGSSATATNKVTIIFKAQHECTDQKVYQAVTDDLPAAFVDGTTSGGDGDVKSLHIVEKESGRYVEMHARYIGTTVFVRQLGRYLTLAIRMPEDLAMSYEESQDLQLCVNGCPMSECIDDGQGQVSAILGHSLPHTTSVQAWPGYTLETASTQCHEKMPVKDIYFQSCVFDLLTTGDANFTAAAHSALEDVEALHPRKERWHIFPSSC
# Chain of BMP7 (Homo sapiens) (P18075 293-431): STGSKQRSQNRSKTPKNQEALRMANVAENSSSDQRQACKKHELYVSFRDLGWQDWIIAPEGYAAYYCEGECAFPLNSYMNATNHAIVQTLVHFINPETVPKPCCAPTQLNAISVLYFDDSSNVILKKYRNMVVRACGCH
# Chain of BMP5 (Homo sapiens) (P22003 317-454): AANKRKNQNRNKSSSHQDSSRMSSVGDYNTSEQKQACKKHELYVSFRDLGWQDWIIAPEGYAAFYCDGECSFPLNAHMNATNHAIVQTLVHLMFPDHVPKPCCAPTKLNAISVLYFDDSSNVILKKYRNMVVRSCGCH
Substance,Kd (BMP6 (Homo sapiens)),Kd (BMP2 (Homo sapiens) [1]),Kd (BMP2 (Homo sapiens) [3]),further results
RGMa (from UniProt Q96B86),55 nM,22 nM,–,–
RGMb (from UniProt Q6NW40),28 nM,5.5 nM,–,Kd (BMP4 (Homo sapiens) [4]): 2.6 nM
RGMb.Fc ECD (from UniProt Q7TQ33),–,–,1.5 nM,–
neogenin (from UniProt Q92859),–,–,–,Kd (netrin): 2 nM

# Continued, in another order:
Kd (BMP6 (Homo sapiens)),Kd (BMP2 (Homo sapiens) [1]),Kd (BMP2 (Homo sapiens) [3]),Substance,further results
8.1 nM,–,–,HJV (from UniProt Q6ZVN8),Kd (BMP7 (Homo sapiens)): 20 nM; Kd (BMP5 (Homo sapiens)): 17 nM
–,2.46 nM,2.4 nM,RGMa.Fc ECD (from UniProt Q6PCX7),Kd (BMP4 (Homo sapiens) [2]): 1.4 nM
